This is an account of results in publication PMC9540369.

The target in the assay is mTFP1. The assay can be described thus: SDS-PAGE with in-gel fluorescence; whole-cell extract of C. reinhardtii transformants in SDS sample buffer without β-mercaptoethanol, 40°C for 5 min; 15% resolving gel; gel washed in water to refold the fluorescent proteins; imaged with bandpass filters.

As for mTFP1, the stoichiometry N is 2.

Usually stoichiometry N stands for the number of molecules, sites or subunits per partner or assembly.
